We go through one variant from IntAct's records for PubMed 25260751.

Sequences and labels used below:
B1: Mitogen-activated protein kinase kinase kinase 1 (Rattus norvegicus (Rat)), Q62925 (parent)
chain: MAAAAGDRASSSGFPGAAAASPEAGGGGGALQGSGAPAAGAGLLRETGSAGRERADWRRQQLRKVRSVELDQLPEQPLFLTASPPCPSTSPSPEPADAAAGASGFQPAAGPPPPGAASRCGSHSAELAAARDSGARSPAGAEPPSAAAPSGREMENKETLKGLHKMDDRPEERMIREKLKATCMPAWKHEWLERRNRRGPVVVKPIPIKGDGSEMSNLAAELQGEGQAGSAAPAPKGRRSPSPGSSPSGRSGKPESPGVRRKRVSPVPFQSGRITPPRRAPSPDGFSPYSPEETSRRVNKVMRARLYLLQQIGPNSFLIGGDSPDNKYRVFIGPQNCSCGRGTFCIHLLFVMLRVFQLEPSDPMLWRKTLKNFEVESLFQKYHSRRSSRIKAPSRNTIQKFVSRMSNCHTLSSSSTSTSSSENSIKDEEEQMCPICLLGMLDEESLTVCEDGCRNKLHHHCMSIWAEECRRNREPLICPLCRSKWRSHDFYSHELSSPVDSPTSLRGVQQPSSPQQPVAGSQRRNQESNFNLTHYGTQQIPPAYKDLAEPWIQAFGMELVGCLFSRNWNVREMALRRLSHDVSGALLLANGESTGTSGGGSGGSLSAGAASGSSQPSISGDVVEAFCSVLSIVCADPVYKVYVAALKTLRAMLVYTPCHSLAERIKLQRLLRPVVDTILVKCADANSRTSQLSISTLLELCKGQAGELAVGREILKAGSIGVGGVDYVLSCILGNQAESNNWQELLGRLCLIDRLLLEISAEFYPHIVSTDVSQAEPVEIRYKKLLSLLAFALQSIDNSHSMVGKLSRRIYLSSARMVTTVPPLFSKLVTMLSASGSSHFARMRRRLMAIADEVEIAEVIQLGSEDTLDGQQDSSQALAPPRYPESSSLEHTAHVEKTGKGLKATRLSASSEDISDRLAGVSVGLPSSATTEQPKPTVQTKGRPHSQCLNSSPLSPPQLMFPAISAPCSSAPSVPAGSVTDASKHRPRAFVPCKIPSASPQTQRKFSLQFQRTCSENRDSEKLSPVFTQSRPPPSSNIHRAKASRPVPGSTSKLGDASKNSMTLDLNSASQCDDSFGSGSNSGSAVIPSEETAFTPAEDKCRLDVNPELNSSIEDLLEASMPSSDTTVTFKSEVAVLSPEKAESDDTYKDDVNHNQKCKEKMEAEEEEALAIAMAMSASQDALPIVPQLQVENGEDIIIIQQDTPETLPGHTKANEPYREDTEWLKGQQIGLGAFSSCYQAQDVGTGTLMAVKQVTYVRNTSSEQEEVVEALREEIRMMSHLNHPNIIRMLGATCEKSNYNLFIEWMAGASVAHLLSKYGAFKESVVINYTEQLLRGLSYLHENQIIHRDVKGANLLIDSTGQRLRIADFGAAARLASKGTGAGEFQGQLLGTIAFMAPEVLRGQQYGRSCDVWSVGCAIIEMACAKPPWNAEKHSNHLALIFKIASATTAPSIPSHLSPGLRDVALRCLELQPQDRPPSRELLKHPVFRTTW

Variants of B1 are the subject of the assay. The following applies: with ube2n_human UBE2N.
In the case of L438A;M440A, the “effect of a mutation on the interaction” value is “disrupting interaction”.
